These results are taken from patent US20240199757A1 (UNIVERSITY OF CHICAGO, published 2024).

Residue numbers refer to the chain shown, from its start. Read-outs that look alike come from different tables or passages of the source.

Assay [1] has as its target T1, Full-length human NT5E (recombinant, in-house) (human, UniProt P21589 27-549).
T1 construct: also called hNT5E; hNT5EWT
T1 sequence: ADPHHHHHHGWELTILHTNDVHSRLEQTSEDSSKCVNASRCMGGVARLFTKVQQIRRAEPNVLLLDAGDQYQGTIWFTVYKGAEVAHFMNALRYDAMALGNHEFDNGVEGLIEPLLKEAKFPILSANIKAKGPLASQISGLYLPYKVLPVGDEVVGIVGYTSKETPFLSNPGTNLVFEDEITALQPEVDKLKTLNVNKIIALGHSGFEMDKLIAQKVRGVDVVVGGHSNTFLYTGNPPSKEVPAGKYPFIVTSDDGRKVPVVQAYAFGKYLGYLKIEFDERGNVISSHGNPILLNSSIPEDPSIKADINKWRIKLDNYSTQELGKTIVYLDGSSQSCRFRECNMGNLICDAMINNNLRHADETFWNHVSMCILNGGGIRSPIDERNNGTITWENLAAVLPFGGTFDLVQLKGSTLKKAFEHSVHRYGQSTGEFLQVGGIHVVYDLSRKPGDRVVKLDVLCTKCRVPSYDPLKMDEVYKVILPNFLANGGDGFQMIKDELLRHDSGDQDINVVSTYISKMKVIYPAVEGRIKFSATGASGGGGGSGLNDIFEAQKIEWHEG
The experiment in a line: SPR, His-captured NT5E, no ATP. As to the method: (§1) All SPR experiments were performed at 25° C. using MASS-1 (Bruker) instrument. hNT5E, mNT5E and cNT5E were immobilized onto a nitrilotriacetic acid (NTA) sensor chip via His-tag. For kinetic experiments, after ligand immobilization, 2-fold serial dilutions of the Fabs were injected. After double-reference subtraction data were analyzed with BiaEvaluation (GE Healthcare) or Sierra Analyser (Bruker) software. The experiments were carried in buffers in presence and absence of 1 mM ATP to compare the kinetic parameters of the Fabs binding to closed and open form of NT5E.

Assay [2] has as its target T2, Full-length murine NT5E (recombinant) (murine, UniProt Q61503 29-552).
T2 construct: also called mNT5E
T2 sequence: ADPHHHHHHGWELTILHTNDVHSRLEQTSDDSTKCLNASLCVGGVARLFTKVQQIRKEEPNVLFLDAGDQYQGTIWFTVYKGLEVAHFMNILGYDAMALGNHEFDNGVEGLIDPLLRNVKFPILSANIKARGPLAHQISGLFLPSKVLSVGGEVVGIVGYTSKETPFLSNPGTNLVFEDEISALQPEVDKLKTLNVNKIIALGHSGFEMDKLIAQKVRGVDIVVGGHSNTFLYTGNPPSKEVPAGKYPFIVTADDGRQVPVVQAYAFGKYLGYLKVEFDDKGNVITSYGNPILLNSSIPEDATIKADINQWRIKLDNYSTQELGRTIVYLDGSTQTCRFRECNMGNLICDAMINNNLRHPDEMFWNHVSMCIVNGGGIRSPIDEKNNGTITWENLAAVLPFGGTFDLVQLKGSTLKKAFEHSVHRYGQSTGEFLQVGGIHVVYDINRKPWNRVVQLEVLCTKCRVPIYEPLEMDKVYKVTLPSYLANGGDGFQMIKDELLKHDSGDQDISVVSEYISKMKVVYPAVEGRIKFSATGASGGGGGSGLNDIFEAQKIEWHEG
The assay is described as follows: SPR, His-captured NT5E, no ATP. As for the experimental part:
as §1
For orientation: In SPR one partner is held on a chip, and binding of the other changes the refractive index at the surface.

In assay [3] the target is T1, Full-length human NT5E (recombinant, …). The assay is described as follows: SPR, His-captured NT5E, 1 mM ATP. As for the experimental part: as §1
For assay [4], the target named is T2, Full-length murine NT5E (recombinant). The experiment in a line: SPR, His-captured NT5E, 1 mM ATP. As for the experimental part:
as §1

Assay [5] has as its target T3, human NT5E expressed on MDA-MB-231 cells (human, UniProt P21589 27-549).
T3 construct: whole, on cells; also called NT5E-expressing MDA-MB-231 cells; CD73
T3 sequence (looked up): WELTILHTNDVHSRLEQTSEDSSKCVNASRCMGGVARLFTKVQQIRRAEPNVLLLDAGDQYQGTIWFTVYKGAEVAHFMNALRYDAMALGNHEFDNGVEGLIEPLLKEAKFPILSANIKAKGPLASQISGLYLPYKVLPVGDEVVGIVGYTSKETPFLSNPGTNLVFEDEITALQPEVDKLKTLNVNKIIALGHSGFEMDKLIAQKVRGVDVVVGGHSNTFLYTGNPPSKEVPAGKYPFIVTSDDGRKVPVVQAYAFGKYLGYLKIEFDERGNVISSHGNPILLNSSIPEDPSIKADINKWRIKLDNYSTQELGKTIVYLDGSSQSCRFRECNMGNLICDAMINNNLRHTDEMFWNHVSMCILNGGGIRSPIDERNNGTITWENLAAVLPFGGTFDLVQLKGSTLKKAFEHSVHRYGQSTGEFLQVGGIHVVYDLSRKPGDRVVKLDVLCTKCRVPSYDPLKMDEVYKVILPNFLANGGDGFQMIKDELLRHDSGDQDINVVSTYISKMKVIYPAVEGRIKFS
The assay is described as follows: flow cytometry on MDA-MB-231 cells, 1 mM ATP. As for the experimental part:
(§2) Flow cytometry analysis of antibodies binding to human NT5E expressed on MDA-MB-231 cells in ATP-free condition (black) or in 1 mM ATP (red). Top panel: (left) 1780 Fab and (right) 1780 IgG titrations. […] Binding was measured at the indicated range of antibody concentrations and is expressed as mean±st. dev of median fluorescence intensity (MFI) of 1-2 replicates. Data were analyzed using OriginLab, and EC₅₀ values are shown next to the fitted curves.
(§3) Human MDA-MB-231 cells and murine 4T1 cells were grown to 90% confluency, detached with 5 mM EDTA for 15 min at 37° C. and then resuspended in 37° C. lx PBS (#10010031, Gibco) supplemented with 1% FBS and 1OpM ZnCl2. Separate working buffers (WB) of PBS and 1% FBS with or without fixed nucleotide concentrations were used throughout all washing steps to maintain constant condition. In 96-well plates (#3799, Costar), 0.2×10⁶ cells were added per well. The plates were spun at 500×g for 5 min and the supernatant was removed. Anti-NT5E antibodies were diluted to the desired concentration in 100 μL WB, added to the cells and the plates were incubated for 20 min at 37° C. Plates were spun and cells were washed twice with WB then spun a second time. Cells were stained with 100 μL of secondary antibody (Alexa Fluor 647 AffiniPure Goat Anti-Human IgG, F(ab′)2 fragment specific, #109-605-006, Jackson, 1:200) dilution and plates were incubated for 20 min at 37° C. Cells were washed twice with WB then fixed on ice with WB supplemented with 0.5% PFA. Fixing solution was removed by centrifugation and cells were resuspended in cold 1× PBS. Samples were analyzed by flow cytometry using CytoFLEX (Beckman Coulter) and mean fluorescence intensity (MFI) data was extracted using FlowJo software. Resulting binding data was plotted using OriginLab.
In general terms: In flow cytometry, cells or beads pass a laser one at a time.

Assay [6] deals with T3, human NT5E expressed on MDA-MB-231 cells. The experiment in a line: flow cytometry on MDA-MB-231 cells, 1 mM ATP. As for the experimental part: as §2, §3
The source holds these as a separate data set.

Assay [7] shares this target. The experiment in a line: cell-based or functional assay.
The target of assay [8] is T1, Full-length human NT5E (recombinant, …). The assay is described as follows: SPR, hNT5E-6xHis on NTA chip, primary Fab injection; Fab concentration and ATP condition not given. As for the experimental part:
After incubation, the remaining NT5E is probed with αStrep-HRP Ab. If there is competition for binding to NT5E, then a decrease in signal would be expected.
as §1

The target in assay [9] is T2, Full-length murine NT5E (recombinant). The experiment in a line: SPR, His-captured NT5E, no ATP (* Data generated poor fits). As for the experimental part:
as §1

In assay [10] the target is T3, human NT5E expressed on MDA-MB-231 cells. The assay is described as follows: cell-based or functional assay. The source holds these as a separate data set.

A word on the Kd: it is the free concentration of one partner at which half of the binding sites on the other are occupied at equilibrium, for simple one-to-one binding. One may read the koff as a measure of how fast the partners let go of each other. For orientation: kon means the rate constant with which the complex forms. Usually EC50 stands for the midpoint of the concentration-response curve. A higher EC50 goes with weaker potency.

B1: 1789 AM32 Fab (Fab, V domains shown)
VH: EVQLVESGGGLVQPGGSLRLSCAASGFNVSYSSIHWVRQAPGKGLEWVARIRGNEGDTYYADSVKGRFTISADTSKNTAYLQMNSLRAEDTAVYYCARNYWGWYPFYYFAFDYWGQGTLVTV
VL: DIQMTQSPSSLSASVGDRVTITCRASQSVSSAVAWYQQKPGKAPKLLIYSASSLYSGVPSRFSGSRSGTDFTLTISSLQPEDFATYYCQQGWDYPITFGQGTKVEIKR
notes: also called Fab32
On to B1, for which the Kd was found to be 86 nM in assay [1], 150 nM in assay [2], 15 nM in [3] and 15 nM in assay [4]. In addition, the koff in [1] was 0.0091 s⁻¹; in assay [2], 0.011 s⁻¹; in assay [3], 0.0042 s⁻¹; in assay [4], 0.0028 s⁻¹. Further, the kon in assay [1] is 110000 M⁻¹ s⁻¹; in assay [2], 78000 M⁻¹ s⁻¹; in assay [3], 270000 M⁻¹ s⁻¹; in [4], 190000 M⁻¹ s⁻¹.

B2: 1780 IgG (antibody, V domains shown)
VH: EVQLVESGGGLVQPGGSLRLSCAASGFNFYSYSIHWVRQAPGKGLEWVASISSSSGYTYYADSVKGRFTISADTSKNTAYLQMNSLRAEDTAVYYCARYSWWGWHMEGWWGYMNAFDYWGQGTLVTVSS
VL: B1 VL with G91A, W92H, D93P, Y94K
Consider B2, for which the EC50 in assay [5] was found to be 28 nM; in assay [6], 19.6 nM. In assay [7], the “IC50 of NT5E phosphate production on MDA-MB-231 cells, +500 µM ATP” value was 50.5 nM.

B3: 1557 Fab (Fab, V domains shown)
VH: EVQLVESGGGLVQPGGSLRLSCAASGFNVYYSSIHWVRQAPGKGLEWVASISSSSGSTSYADSVKGRFTISADTSKNTAYLQMNSLRAEDTAVYYCARYGWWEYGYGGWWHPALDYWGQGTLVTV
VL: B1 VL with G91V, D93W, Y94G
For B3, the binding result in assay [8] was “binds”.

B4: 1789 AM42 Fab (Fab, V domains shown)
VH: B1 VH with R50K, N54G, E55H, G56Q, Y59H
VL: B1 VL
Consider B4, for which the Kd in assay [1] was determined as 38 nM; in assay [2], 63 nM; in assay [3] it was 11 nM; in [4], 12 nM. The koff is 0.0067 s⁻¹ in [1], 0.012 s⁻¹ in assay [2], 0.0036 s⁻¹ in [3] and 0.0029 s⁻¹ in [4]. Also, the kon came out at 180000 M⁻¹ s⁻¹ in [1], 190000 M⁻¹ s⁻¹ in assay [2], 320000 M⁻¹ s⁻¹ in assay [3] and 250000 M⁻¹ s⁻¹ in assay [4].

B5: 1789 AM39 Fab (Fab, V domains shown)
VH: B1 VH with R50S, N54A, E55G, G56S, Y59R
VL: B1 VL
B5: the Kd came out at 99 nM in [9], 35 nM in assay [1], 7.9 nM in [3] and 12 nM in assay [4]. Further, the koff was 0.0099 s⁻¹ in [1], 0.013 s⁻¹ in [2], 0.0039 s⁻¹ in assay [3] and 0.0035 s⁻¹ in [4]. In addition, the kon was 280000 M⁻¹ s⁻¹ in [1], 140000 M⁻¹ s⁻¹ in assay [2], 490000 M⁻¹ s⁻¹ in assay [3] and 290000 M⁻¹ s⁻¹ in assay [4].

B6: Medi9447 IgG (antibody, V domains shown)
VH: EVQLLESGGGLVQPGGSLRLSCAASGFTFSSYAYSWVRQAPGKGLEWVSAISGSGGRTYYADSVKGRFTISRDNSKNTLYLQMNSLRAEDTAVYYCARLGYGRVDEWGRGTLVTVSS
VL: QSVLTQPPSASGTPGQRVTISCSGSLSNIGRNPVNWYQQLPGTAPKLLIYLDNLRLSGVPDRFSGSKSGTSASLAISGLQSEDEADYYCATWDDSHPGWTFGGGTKLTVLG
For B6, in assay [10], the “IC50 of NT5E activity on MDA-MB-231 cells, no ATP” value turned out to be 0.3 nM and the “IC50 of NT5E activity on MDA-MB-231 cells, with ATP” value is 1 nM.
